Reference: US20230159934, “INSULIN RECEPTOR APTAMER AND PHARMACEUTICAL COMPOSITION FOR TREATING DIABETES COMPRISING THE SAME” (APTAMER SCIENCES INC., published 2023)

Experiments:
Settings in all cases: chain copies: 2
[1] = target: T1, Insulin receptor on differentiated 3T3-L1 adipocytes (UniProt P15208;P15208 P15208:28-748,P15208:753-1372); experiment: cell_activity; lipolysis (glycerol release) inhibition in 3T3-L1 adipocytes; insulin 2.07 nM
Procedure: To identify the effect of the chemically optimized A48m (A48m combi 2 to 5) on lipolysis inhibition as insulin receptor aptamers, an amount of glycerol released in a lipolysis process was measured by using completely differentiated 3T3-L1 adipocytes.
Particularly, for serum deficiency, the completely differentiated 3T3-L1 adipocytes were treated with DMEM with no FBS for 3 hours and treated with a Krebs-Ringer HEPES buffer solution for 1 hour to induce lipolysis caused by deficiency of glucose. The adipocytes were treated respectively with insulin or the A48m combi 3 aptamer in concentrations of 0.93 nM, 2.59 nM, 7.26 nM, 20.34 nM, 56.94 nM, 159.44 nM, 446.43 nM, 1250 nM, and 3500 nM for 4 hours, and then a buffer used to treat the cells was collected. 20 μl of the collected buffer was added to a 96-well plate and 200 μl of a free glycerol reagent (Sigma F6428) was added thereto, followed by reaction at room temperature for 30 minutes. Then, concentration-dependent color development of glycerol released from the cells was measured by measuring absorbance at 540 nm.

[2] = target: T1, Insulin receptor on differentiated …; experiment: cell_activity; glucose uptake in differentiated 3T3-L1 adipocytes; insulin 9.6 nM
Procedure: For serum deficiency, the completely differentiated 3T3-L1 adipocytes were treated with DMEM with no FBS for 3 hours and treated with a Krebs-Ringer HEPES buffer solution for 1 hour. Subsequently, the adipocytes were treated respectively with insulin or the A48m combi 3 aptamer in concentrations of 1.6 nM, 8 nM, 40 nM, 200 nM, and 1000 nM for a given time and then treated with 2-deoxy[14C]glucose (0.1 μCi/ml) for 10 minutes. The resultant was washed three times with PBS supplemented with 20 mM glucose and the cells were dissolved using a solution including 0.5 N NaOH and 1% SDS. An amount of 2-Deoxy-D-glucose absorbed into the cells was observed using a liquid scintillation counter.

[3] = target: T2, Insulin receptor (hIR) expressed on Rat-1/hIR cells (Homo sapiens, UniProt P06213;P06213 P06213:28-758,P06213:763-1382); experiment: cell_activity; IR phosphorylation, 200 nM, Rat-1/hIR; Table 5 gives 0.83
T2 sequence (P06213 28-758, chain 1 of 2): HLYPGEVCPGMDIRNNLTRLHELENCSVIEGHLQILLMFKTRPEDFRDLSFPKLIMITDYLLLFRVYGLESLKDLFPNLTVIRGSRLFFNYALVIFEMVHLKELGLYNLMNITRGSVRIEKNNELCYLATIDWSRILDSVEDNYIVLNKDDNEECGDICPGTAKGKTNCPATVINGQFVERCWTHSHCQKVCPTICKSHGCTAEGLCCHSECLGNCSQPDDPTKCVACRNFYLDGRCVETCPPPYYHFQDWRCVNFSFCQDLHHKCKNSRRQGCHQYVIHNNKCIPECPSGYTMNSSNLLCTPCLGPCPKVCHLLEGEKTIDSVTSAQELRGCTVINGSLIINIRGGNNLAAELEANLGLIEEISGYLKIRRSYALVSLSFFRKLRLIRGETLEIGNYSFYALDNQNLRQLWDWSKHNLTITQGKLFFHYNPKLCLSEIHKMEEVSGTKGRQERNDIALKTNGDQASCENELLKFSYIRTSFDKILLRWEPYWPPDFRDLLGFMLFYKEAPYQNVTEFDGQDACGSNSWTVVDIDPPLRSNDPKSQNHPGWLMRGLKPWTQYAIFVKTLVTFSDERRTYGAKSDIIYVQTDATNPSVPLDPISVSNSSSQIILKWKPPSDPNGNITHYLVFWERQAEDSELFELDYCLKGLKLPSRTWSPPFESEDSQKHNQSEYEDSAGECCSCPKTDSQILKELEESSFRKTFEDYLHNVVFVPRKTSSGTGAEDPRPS
T2 sequence (P06213 763-1382, chain 2 of 2): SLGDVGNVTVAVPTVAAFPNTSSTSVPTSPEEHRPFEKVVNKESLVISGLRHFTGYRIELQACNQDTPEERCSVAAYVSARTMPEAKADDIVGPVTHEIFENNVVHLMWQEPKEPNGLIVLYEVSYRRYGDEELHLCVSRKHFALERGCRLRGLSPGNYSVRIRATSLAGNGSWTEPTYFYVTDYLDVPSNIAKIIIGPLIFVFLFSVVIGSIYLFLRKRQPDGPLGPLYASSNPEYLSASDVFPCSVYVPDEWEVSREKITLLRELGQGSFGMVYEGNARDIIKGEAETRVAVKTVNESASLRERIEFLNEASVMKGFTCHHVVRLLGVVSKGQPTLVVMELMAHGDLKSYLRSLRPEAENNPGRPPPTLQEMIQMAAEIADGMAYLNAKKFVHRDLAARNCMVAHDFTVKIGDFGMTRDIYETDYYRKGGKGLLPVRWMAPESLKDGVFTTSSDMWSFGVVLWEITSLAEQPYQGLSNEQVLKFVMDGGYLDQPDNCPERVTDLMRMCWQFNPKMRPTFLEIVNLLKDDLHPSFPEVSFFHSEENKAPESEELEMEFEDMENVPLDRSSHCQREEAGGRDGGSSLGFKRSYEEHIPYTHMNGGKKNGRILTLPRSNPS
Procedure: (§1) To identify the insulin receptor phosphorylation activity of the chemical variant samples of A48m prepared in Example 2-1, an experiment was performed as follows. Particularly, Rat-1/hIR cells were seeded on a 12-well plates at a density of 10⁵ cells per well and cultured overnight in a high glucose Dulbecco's modified Eagle's medium (DMEM) supplemented with 10% fetal bovine serum (FBS). The cells untreated with the aptamer samples were incubated in the DMEM not including FBS for 3 hours, washed three times with 1×PBS, and incubated in a Krebs-Ringer HEPES buffer [25 mM HEPES (pH 7.4), 120 mM NaCl, 5 mM KCl, 1.2 mM MgSO₄, 1.3 mM CaCl₂, and 1.3 mM KH₂PO₄] for 1 hour. The aptamer samples, which were the chemical variants of A48m prepared in Example 2-1, were heated at 95° C. for 5 minutes and cooled at room temperature such that a three-dimensional structure of each aptamer was reconstructed. The aptamers were dissolved in the Krebs-Ringer HEPES buffer for preparation.
(§2) The aptamer samples were added to each well of the 12-well plate and incubated for 1 hour. After 1 hour, the plate was washed three times with 1×PBS and the cells were isolated from the plate and lysed with a lysis buffer. The cell lysates were centrifuged at 4° C. at 14,000 rpm for 15 minutes to isolate proteins. […] Intensities of bands formed on the membrane were quantified via comparison with A48m.

[4] = target: T2, Insulin receptor (hIR) expressed on …; experiment: cell_activity; IR phosphorylation, 200 nM, Rat-1/hIR
Procedure: as §1
The aptamer samples were added to each well of the 12-well plate and incubated for 1 hour. After 1 hour, the plate was washed three times with 1×PBS and the cells were isolated from the plate and lysed with a lysis buffer. The cell lysates were centrifuged at 4° C. at 14,000 rpm for 15 minutes to isolate proteins. The isolated samples were heated at 100° C. for 5 minutes with a 5× sample buffer and slowly cooled at room temperature to prepare western blot samples. The prepared samples were subjected to electrophoresis on 4%-12% SDS-PAGE for 1 hour and 30 minutes and transferred to a nitrocellulose membrane for 1 hour and 30 minutes. Then, the membrane was blocked at room temperature for 40 minutes in a blocking buffer solution (1×PBST, 3% skim milk) and incubated for 1 hour at room temperature with a primary antibody [anti-phosphor-IR (10C3), Santa Cruz Biotechnology or anti-β-actin (D6A8), Cell Signaling Technology] diluted in a blocking buffer at 1:500 or 1:1000. The membrane was washed three times with 1×PBS and incubated for 1 hour at room temperature with a secondary binding antibody diluted in the blocking buffer at 1:20000, and washed three times with 1×PBST. An ECL solution was sprayed onto the membrane, followed by incubation at room temperature for 1 minute and exposure to x-rays. Intensities of bands formed on the membrane were quantified via comparison with A48m.

[5] = target: T2, Insulin receptor (hIR) expressed on …; experiment: cell_activity; IR phosphorylation, 200 nM, Rat-1/hIR; Table 5 gives 0.95
Procedure: as §1, §2

[6] = target: T2, Insulin receptor (hIR) expressed on …; experiment: cell_activity; IR phosphorylation, 200 nM, Rat-1/hIR; Table 5 gives 0.77
Procedure: as §1, §2

[7] = target: T2, Insulin receptor (hIR) expressed on …; experiment: cell_activity; IR phosphorylation reference, 200 nM, Rat-1/hIR
Procedure: as §1, §2

[8] = target: T2, Insulin receptor (hIR) expressed on …; experiment: cell_activity; IR phosphorylation, 200 nM, Rat-1/hIR; Table 5 gives 0.9
Procedure: as §1, §2

T1 sequence (P15208 28-748, chain 1 of 2): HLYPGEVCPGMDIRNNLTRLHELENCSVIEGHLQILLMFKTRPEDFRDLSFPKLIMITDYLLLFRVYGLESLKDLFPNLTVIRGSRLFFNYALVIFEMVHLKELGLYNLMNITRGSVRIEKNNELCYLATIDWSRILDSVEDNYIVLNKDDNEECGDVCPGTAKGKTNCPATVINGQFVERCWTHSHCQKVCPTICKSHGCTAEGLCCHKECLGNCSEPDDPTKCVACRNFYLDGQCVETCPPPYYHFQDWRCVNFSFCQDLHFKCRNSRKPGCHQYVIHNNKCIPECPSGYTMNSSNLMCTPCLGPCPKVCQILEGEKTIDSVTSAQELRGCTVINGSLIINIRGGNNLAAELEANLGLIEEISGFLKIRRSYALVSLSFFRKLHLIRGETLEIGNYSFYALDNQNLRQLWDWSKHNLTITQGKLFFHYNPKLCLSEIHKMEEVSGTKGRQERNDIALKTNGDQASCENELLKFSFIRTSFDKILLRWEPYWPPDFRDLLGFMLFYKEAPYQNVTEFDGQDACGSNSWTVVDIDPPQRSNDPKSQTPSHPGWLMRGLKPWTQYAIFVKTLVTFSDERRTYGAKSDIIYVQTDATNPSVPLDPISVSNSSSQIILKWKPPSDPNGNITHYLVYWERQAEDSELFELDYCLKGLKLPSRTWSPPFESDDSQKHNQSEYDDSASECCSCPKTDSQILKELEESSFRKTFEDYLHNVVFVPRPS
T1 sequence (P15208 753-1372, chain 2 of 2): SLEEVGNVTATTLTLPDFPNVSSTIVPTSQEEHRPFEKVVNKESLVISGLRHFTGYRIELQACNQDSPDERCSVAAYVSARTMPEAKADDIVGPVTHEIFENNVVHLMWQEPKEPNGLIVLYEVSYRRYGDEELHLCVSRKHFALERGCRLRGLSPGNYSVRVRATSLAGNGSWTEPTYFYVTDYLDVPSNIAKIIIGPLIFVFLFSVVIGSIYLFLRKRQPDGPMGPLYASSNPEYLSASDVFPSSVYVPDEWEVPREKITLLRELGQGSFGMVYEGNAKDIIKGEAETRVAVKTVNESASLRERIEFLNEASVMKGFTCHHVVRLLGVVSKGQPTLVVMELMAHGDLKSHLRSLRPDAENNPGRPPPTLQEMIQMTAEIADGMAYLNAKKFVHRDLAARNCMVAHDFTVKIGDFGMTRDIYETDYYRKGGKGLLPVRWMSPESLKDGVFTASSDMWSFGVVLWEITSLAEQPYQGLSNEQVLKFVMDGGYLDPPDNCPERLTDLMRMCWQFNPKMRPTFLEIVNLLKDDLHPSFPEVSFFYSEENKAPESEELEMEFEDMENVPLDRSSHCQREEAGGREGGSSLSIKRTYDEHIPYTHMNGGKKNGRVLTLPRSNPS

B1: A48m combi 3 (ssDNA)
DNA: CCUGGTGTTTAGACGACCTATAGGTTAGG
modifications: CmeCmeUmeGGPGZPLPAmeGAmeCfGAmeCfCmePAmePAGGmePPAmeGmeGme-idT; me = 2'-OMe, f = 2'-F, P = naphthyl-dU, Z = benzyl-dU, L = C3 linker, 3' idT [2'-OMe at 1,2,3,11,13,16,18,20,24,27,28,29; 2'-F at 14,17; naphthyl-dU at 6,9,10,19,21,25,26; benzyl-dU at 8; C3 linker (left out) between 9 and 10; 3' idT (left out) after 29]
- IC50 [1]: 11 nM
- EC50 [2]: 16.5 nM

Binder: CGCCTGGTGTTCTAGACGACCTATAGGTTAGGC (ssDNA, P = naphthyl-dU; benzyl-dU at position 10) [A48m P10Z]
- activity [3]: 2.7 fold of A48m

Binder: CGCCTGGTGTTCTAGACGACCTATAGGTTAGGC (ssDNA, P = naphthyl-dU; C3 linker at position 12) [A48m C12 C3-linker]
- activity [4]: 1.7 fold of A48m

Binder: CGCCTGGTGTTCTAGACGACCTATAGGTTAGGC (ssDNA, P = naphthyl-dU; benzyl-dU at position 28) [A48m P28Z]
- activity [5]: 1.09 fold of A48m

Binder: CGCCTGGTGTTCTAGACGACCTATAGGTTAGGC (ssDNA, P = naphthyl-dU; benzyl-dU at position 29) [A48m P29Z]
- activity [6]: 0.9 fold of A48m

Binder: CGCCTGGTGTTCTAGACGACCTATAGGTTAGGC (ssDNA, P = naphthyl-dU; C3 linker at position 18) [A48m G18 C3-linker]
- activity [4]: 1.16 fold of A48m

Binder: CGCCTGGTGTTCTAGACGACCTATAGGTTAGGC (ssDNA, P (n) = naphthyl-dU) [A48m (A48 seq 1-19)]
- activity [7]: 1 fold of A48m

Binder: CGCCTGGTGTTCTAGACGACCTATAGGTTAGGC (ssDNA, P = naphthyl-dU; 2'-F at position 27) [A48m G27 2'-F]
- activity [4]: 1.11 fold of A48m

Binder: CGCCTGGTGTTCTAGACGACCTATAGGTTAGGC (ssDNA, P = naphthyl-dU; 2'-OMe at position 2) [A48m G2 2'-OMe]
- activity [4]: 1.28 fold of A48m

Binder: CGCCTGGTGTTCTAGACGACCTATAGGTTAGGC (ssDNA, P = naphthyl-dU; benzyl-dU at position 13) [A48m P13Z]
- activity [8]: 1 fold of A48m
